From patent publication US20020142955

Tests used:
[1] = test system: Mcc-Pro-Leu-Gly-Pro-D-Lys(DNP)
Suc-βAla-Leu-Tyr-Leu-Dox = test system: T1, Suc-βAla-Leu-Tyr-Leu-Dox
T1 sequence: XLYL

Sequence of partially purified HeLa cell trouase (HeLa cell anion exchange fraction pool, F1) (chain, as listed by the source): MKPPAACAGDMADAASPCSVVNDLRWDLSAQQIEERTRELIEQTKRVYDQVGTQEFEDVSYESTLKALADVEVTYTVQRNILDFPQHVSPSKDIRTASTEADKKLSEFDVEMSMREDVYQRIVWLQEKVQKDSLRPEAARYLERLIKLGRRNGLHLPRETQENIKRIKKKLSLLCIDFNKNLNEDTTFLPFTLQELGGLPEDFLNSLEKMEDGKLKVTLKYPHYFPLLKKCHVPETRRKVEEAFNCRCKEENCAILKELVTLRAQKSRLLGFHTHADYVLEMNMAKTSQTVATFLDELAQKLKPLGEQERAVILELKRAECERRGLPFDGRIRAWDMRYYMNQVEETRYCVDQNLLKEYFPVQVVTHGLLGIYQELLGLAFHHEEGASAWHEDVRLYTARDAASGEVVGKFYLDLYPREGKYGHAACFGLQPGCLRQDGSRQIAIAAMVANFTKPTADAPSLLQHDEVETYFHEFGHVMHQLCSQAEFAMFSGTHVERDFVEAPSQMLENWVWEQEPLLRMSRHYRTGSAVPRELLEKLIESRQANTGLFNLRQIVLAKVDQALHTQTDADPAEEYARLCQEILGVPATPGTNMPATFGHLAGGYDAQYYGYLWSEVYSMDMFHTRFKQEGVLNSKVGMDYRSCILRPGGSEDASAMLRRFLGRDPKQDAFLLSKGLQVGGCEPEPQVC

Row | Substance | rate of hydrolysis (Table 1, (F1)) (Suc-Leu-Ala-Gly-Dox) | rate of hydrolysis (Table 1, (F1)) (Suc-Leu-Ala-Leu-Dox) | extent of cleavage (HPLC), fold of that of Suc-βAla-Leu-Ala-Leu-Dnr (Suc-Ala-Leu-Ala-Leu-Dnr) | rate of hydrolysis (Table 1, (F1)) (Suc-βAla-Ile-Ala-Leu-Dox) | rate of hydrolysis (Table 1, (F1)) (Suc-Ile-NmAla-Leu-Dox) | rate of hydrolysis (Table 1, (F1)) (Suc-Ile-Ala-Leu-Dox) | rate of hydrolysis (Table 1, (F1)) (Suc-Met-Ala-Leu-Dox) | rate of hydrolysis (Table 1, (F1)) [1] | rate of hydrolysis (Table 1, (F1)) (Suc-Leu-NmAla-Leu-Dox) | rate of hydrolysis (Table 1, (F1)) (Suc-βAla-Leu-Ala-Leu-Dox) | % hydrolysis/10 hr (% hydrolysis/10 hr) (Suc-βAla-Leu-Tyr-Leu-Dox) | Fraction hydrolyzed relative to standard (Suc-βAla-Leu-Tyr-Leu-Dox) | % hydrolysis/10 hr (% hydrolysis/10 hr) (Suc-βAla-Leu-Ala-Leu-Dox) | Fraction hydrolyzed relative to standard (Suc-βAla-Leu-Ala-Leu-Dox)
1 | partially purified HeLa cell trouase (HeLa cell anion exchange fraction pool, F1) | 0.4 | 0.78 | only 0.6 fold that of the P2 β-alanine compound | 0.025 | 0 | 0 | 0.49 | 1.5 | 0 | 1 |  |  |  | 
2 | purified Porcine Kidney CD10 |  |  |  |  |  |  |  |  |  |  | 0 | 0 | 10.9 | 1
